From paper PMC8709496, “Highly Active Thermophilic L-Asparaginase from Melioribacter roseus Represents a Novel Large Group of Type II Bacterial L-Asparaginases from Chlorobi-Ignavibacteriae-Bacteroidetes Clade” (International Journal of Molecular Sciences, 2021)

Substrate: NC(=O)C[C@H](N)C(=O)O
Assay: purified protein
Type: biochemical, Melioribacter roseus
Details: borate buffer 0.025 M, pH 9.3, 70 °C

B1: MrAII (type II L-asparaginase from M. roseus) (Melioribacter roseus P3M-2) (protein)
chain: MKNILIIFTGGTFSMKIDRETNSAVPYYHGEELLKIIPEADKKANISVYEFGNYPGPHMTPELMLELSEIVKKYINQNDTDGIIITHGTDTLEETAYFLDLTVKTEKPIVVIGAMKTSSEPDWDGPKNLLDAISIINNPNSGNMGVLVCLNGEINAASEVTKTHTEDIETFHSLDFGSLGFVENDRVIFNRLPRKLETFETAKINSNVDLIKVYAGMNEKFFKFSADSGADGLVVEAMGVGNVPPKAFEGIKYVIEKGIPVVLVSRCPAGETLDIYGYEGAGKWLKKAGVIFSDYLNGQKARIKLIVCLGITNEIAKLRSMFEDEQ
notes: synthetic native gene (981 nt, printed as 327 aa) in pET-28a(+) NheI/SalI, E. coli BL21(DE3); Q-Sepharose purified
- Km: 1.4 mM
